The values that follow come from the supplement of paper PMC12764529.

The nature of data set [1]: folding stability dG unfold (combined trypsin and chymotrypsin); higher = more stable. The essentials:
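K50 was inferred by Bayesian fitting of sequencing counts obtained after protease digestion of designed mini-proteins. Unfolding free energy was derived by comparison with a sequence-predicted unfolded-state K50 and a shared folded-state K50, for each protease or both combined. The mini-proteins were under 80 residues, had no cysteine, were carried in a PA-tagged cDNA display construct, and were kept only if AlphaFold2 dimer inter-PAE exceeded 15.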

Data set [2] is described as follows: folding stability dG unfold from trypsin proteolysis; higher = more stable. How it is done:
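Folding stability of de novo designed mini-proteins (<80 aa, no Cys; designed by TrROS, TrMRF, ProteinMPNN and the joint model) was measured by cDNA display proteolysis with trypsin and chymotrypsin. Each protease was used at 11 concentrations in a threefold dilution series plus a no-protease condition. K50 was inferred by Bayesian fitting of sequencing counts, and dG unfold was derived against a sequence-predicted unfolded-state K50 (Tsuboyama et al. method). Sequences shown include variable-length N-terminal GS-type padding (SAGGSAGG...) inside a display construct carrying a PA tag. Rows were kept only if the AF2 dimer inter-PAE was >15, to exclude likely homo-oligomers.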

± gives the half width of the 95% confidence interval. Where only a bound is given, the exact number is not on record here.

With “SAGGSAGGMPSDTPFTITKITSVTLNDGRGTTKAVVSYPDGSLVTISSSELERLTKENPNLNLVSAGGSAGG [r6_78_JUSTAS]”, the results for the “folding stability dG unfold” value in data set [1] and in data set [2] were -0.0536 ± 0.13 kcal/mol and 0.384 ± 0.062 kcal/mol, respectively.
Turning to “SAGGSAGGNVKIEVEPGPNGNYLIKIRMPNGTKVEHQFDSPEDAEERAKDFAEEFPPNAQVEIWSAGGSAGG [r6_464_TrROS]”, the results for the “folding stability dG unfold” value in data set [1] and in data set [2] were < -1 kcal/mol and -0.00876 ± 0.14 kcal/mol, respectively.
In the same order, the values of “SAGGSAGGSAEVEIKVRPDDPIPPNLPIVLPDGKERDARVEAVLDPEDGTPVFKVYFDPRSDSAGGSAGGSA [r18_476_TrMRF]” are 0.0528 ± 0.29 kcal/mol and 0.771 ± 0.048 kcal/mol.
In the same order, the values of “SAGGSAGGSAGATVLQQGTATPPDGTTVTFNYNITLPSDVLISVDKNPPNPDLVTKIEAGSAGGSAGGSAGG [r11_781_JUSTAS]” are -0.197 ± 0.4 kcal/mol and 0.154 ± 0.029 kcal/mol.
For the sequence “SAGGSAGGSAGEPEKPVLVKVILPGGKPLLIPGKREEAKKAVEELEKKGFPVEKAEVFDESAGGSAGGSAGG [r11_946_TrMRF]”, the “folding stability dG unfold” value in data set [1] was < -1 kcal/mol; in data set [2], -0.485 ± 0.096 kcal/mol.
As for “SAGGSAGGSAGERIPIKVSIHDPDGRMVPMEIKEIDPDDGTIEVKLPGLPPGIRSIHIMLSAGGSAGGSAGG [r17_260_TrROS]”, the “folding stability dG unfold” value in data set [1] was < -1 kcal/mol; in data set [2], -1.01 ± 0.31 kcal/mol.
Turning to “SAGGSAGGSAGGAMREVPIVLPFSPEMSEEEARALIEEELKRKGDPIAKLVIDKKSPALLSAGGSAGGSAGG [r7_703_JUSTAS]”, the “folding stability dG unfold” value in data set [1] was < -1 kcal/mol; in data set [2], -0.687 ± 0.45 kcal/mol.
The like results for “SAGGSAGGSAGGDVEVKEFTTTDPETGEEIIRVTETIPGNEKIVTTYTKDGKPISTKKILSAGGSAGGSAGG [r7_454_JUSTAS]” were, in that order, -0.528 ± 0.24 kcal/mol and -0.0907 ± 0.13 kcal/mol.
The like results for “SAGGSAGGSAGGGSMTLSLDTRPEDGTLVLVSTFVDPASGLVSVTTTYPDSTVTTTLPVGSAGGSAGGSAGG [r7_402_JUSTAS]” were, in that order, 0.528 ± 0.087 kcal/mol and 0.998 ± 0.049 kcal/mol.
Consider “SAGGSAGGSAGGIWIPGDDIKEALKKMPPDVTKHIFNPDEGRWIMIKVNDNKIDIEPWPSAGGSAGGSAGGS [r10_137_TrROS]”, for which the figures for the “folding stability dG unfold” value in data set [1] and in data set [2] were -0.748 ± 0.36 kcal/mol and -0.392 ± 0.16 kcal/mol, respectively.
As to “SAGGSAGGSAGGKEIPLDEVKDIQPSNDKWYVVFPGKPQRFPPDDIPIPPGKPIRIYPLSAGGSAGGSAGGS [r10_665_TrROS]”, the “folding stability dG unfold” value in data set [1] was -0.154 ± 0.24 kcal/mol; in data set [2] it was 0.338 ± 0.058 kcal/mol.
Consider “SAGGSAGGSAGGKGWPTVEIPMPENGKPTPDSIEEIAEKFNMPNVEVEQSDDWHKIDVDSAGGSAGGSAGGS [r10_642_TrROS]”, for which the “folding stability dG unfold” value was -0.295 ± 0.32 kcal/mol in data set [1] and 0.92 ± 0.047 kcal/mol in data set [2].
Consider “SAGGSAGGSAGGKLVKVTFRTPGGGTLTVEVPPTESLTLPYGDKPILVDVKEDEVVFRDESAGGSAGGSAGG [r7_510_TrMRF]”, for which the “folding stability dG unfold” value was -0.891 ± 0.44 kcal/mol in data set [1] and -0.572 ± 0.18 kcal/mol in data set [2].
For the sequence “SAGGSAGGSAGGKPIYILAEHPSNGKVVLLPVDSPEKAIEFAKALADVPDFKIAHVDAFGSAGGSAGGSAGG [r11_951_TrMRF]”, the “folding stability dG unfold” value in data set [1] is -0.287 ± 0.22 kcal/mol; in data set [2], 0.341 ± 0.052 kcal/mol.
Consider “SAGGSAGGSAGGLADLLKGKTFTVTFPEGDKPYPATFEPTADDTVRVGFPDGDSYPVPAAYQSAGGSAGGSA [r18_169_TrMRF]”, for which the “folding stability dG unfold” value in data set [1] is < -1 kcal/mol; in data set [2], -0.466 ± 0.2 kcal/mol.
As for “SAGGSAGGSAGGLKIQRFPDGNWYRIYLPNGNEHHIPMDEPIKVPNAKEPVKIEPVPPDDSAGGSAGGSAGG [r7_968_TrROS]”, the “folding stability dG unfold” value was -0.961 ± 0.41 kcal/mol in data set [1] and -0.936 ± 0.28 kcal/mol in data set [2].
As for “SAGGSAGGSAGGMITKVTVTYLPGGEVSLTITDENGTPSEKTLSLAELKKYPDIPLELDPSAGGSAGGSAGG [r7_238_JUSTAS]”, the results for the “folding stability dG unfold” value in data set [1] and in data set [2] were -0.374 ± 0.088 kcal/mol and 0.174 ± 0.05 kcal/mol, respectively.
Regarding “SAGGSAGGSAGGMKVEVVDITGPPDLSPDATTTTKHPNGVTSTTTMTDPATRTSTIYTPESAGGSAGGSAGG [r11_362_JUSTAS]”, the entries for the “folding stability dG unfold” value in data set [1] and in data set [2] were < -1 kcal/mol and -0.899 ± 0.83 kcal/mol, respectively.
In the case of “SAGGSAGGSAGGMKVSVSLDILETEVSPDGTVTATYKDESGEIRTITKYVEVKLKPGLASAGGSAGGSAGGS [r10_281_JUSTAS]”, the “folding stability dG unfold” value in data set [1] was -0.237 ± 0.19 kcal/mol; in data set [2] it was -0.148 ± 0.067 kcal/mol.
For “SAGGSAGGSAGGMTEYVPGEGKVLVTYPDGTTKVVPVDPATPEEFRAELEAAGVPEIKPLSAGGSAGGSAGG [r7_139_JUSTAS]”, the “folding stability dG unfold” value in data set [1] is 0.198 ± 0.085 kcal/mol; in data set [2], 0.762 ± 0.027 kcal/mol.
In the same order, the values of “SAGGSAGGSAGGMTTITVKDKTKEEIEKELAEKYNVKKVTVTPIEGNSVKVEVEIEPLGSAGGSAGGSAGGS [r10_1219_JUSTAS]” are -0.948 ± 0.46 kcal/mol and -0.216 ± 0.19 kcal/mol.
